In publication PMC2631437 (Molecular microbiology, 2008):
Where no end group is shown, it is not given here. The star is where a group is joined. FITC = O=C1OC2(c3ccc(O)cc3Oc3cc(O)ccc32)c2ccc(NC(=S)*)cc21

Assays:
[1] = biological target: T1, MotA, full length (wild type) (bacteriophage T4, UniProt P22915 1-211); experiment: NMR titration
T1 sequence (looked up): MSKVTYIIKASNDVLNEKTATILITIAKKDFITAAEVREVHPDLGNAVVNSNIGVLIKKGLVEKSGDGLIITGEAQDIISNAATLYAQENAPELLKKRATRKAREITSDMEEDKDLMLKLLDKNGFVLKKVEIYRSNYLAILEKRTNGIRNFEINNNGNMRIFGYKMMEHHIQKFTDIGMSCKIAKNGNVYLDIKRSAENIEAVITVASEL

AsiA = biological target: T2, AsiA (bacteriophage T4, UniProt P32267 1-90); experiment: NMR titration
T2 sequence (looked up): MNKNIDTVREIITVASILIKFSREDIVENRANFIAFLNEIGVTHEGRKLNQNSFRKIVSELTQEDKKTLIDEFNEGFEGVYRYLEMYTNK

MotA K3E, full length = biological target: T3, MotA K3E, full length (bacteriophage T4, UniProt P22915 1-211, K3E); experiment: fluorescence polarisation
T3 sequence (looked up): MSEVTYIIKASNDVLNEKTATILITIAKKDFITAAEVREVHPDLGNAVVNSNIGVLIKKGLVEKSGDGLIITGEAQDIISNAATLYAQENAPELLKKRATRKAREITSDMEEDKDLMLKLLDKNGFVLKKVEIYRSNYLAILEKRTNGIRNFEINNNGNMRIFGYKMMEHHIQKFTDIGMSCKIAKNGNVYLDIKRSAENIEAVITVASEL

MotA D43K, full length = biological target: T4, MotA D43K, full length (bacteriophage T4, UniProt P22915 1-211, D43K); experiment: fluorescence polarisation
T4 sequence (looked up): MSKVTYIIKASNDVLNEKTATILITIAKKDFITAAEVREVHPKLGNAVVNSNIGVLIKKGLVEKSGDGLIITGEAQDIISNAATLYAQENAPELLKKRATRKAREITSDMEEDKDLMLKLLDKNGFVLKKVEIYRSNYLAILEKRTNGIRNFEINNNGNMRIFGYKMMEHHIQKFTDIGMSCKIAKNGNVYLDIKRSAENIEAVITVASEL

[2] = biological target: T1, MotA, full length (wild type); experiment: fluorescence polarisation
MotA K59E, full length = biological target: T5, MotA K59E, full length (bacteriophage T4, UniProt P22915 1-211, K59E); experiment: fluorescence polarisation
T5 sequence (looked up): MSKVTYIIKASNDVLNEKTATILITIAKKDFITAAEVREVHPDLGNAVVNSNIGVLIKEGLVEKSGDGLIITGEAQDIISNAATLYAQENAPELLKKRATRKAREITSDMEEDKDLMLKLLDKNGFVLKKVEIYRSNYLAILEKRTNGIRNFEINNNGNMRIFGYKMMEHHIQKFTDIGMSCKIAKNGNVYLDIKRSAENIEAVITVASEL

MotA D67K, full length = biological target: T6, MotA D67K, full length (bacteriophage T4, UniProt P22915 1-211, D67K); experiment: fluorescence polarisation
T6 sequence (looked up): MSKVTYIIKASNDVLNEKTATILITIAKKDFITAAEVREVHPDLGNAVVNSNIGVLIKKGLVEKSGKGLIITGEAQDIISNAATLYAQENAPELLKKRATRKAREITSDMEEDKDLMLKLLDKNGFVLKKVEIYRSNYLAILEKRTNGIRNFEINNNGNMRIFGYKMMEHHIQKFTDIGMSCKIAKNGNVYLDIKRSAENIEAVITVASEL

MotA Q76R, full length = biological target: T7, MotA Q76R, full length (bacteriophage T4, UniProt P22915 1-211, Q76R); experiment: fluorescence polarisation
T7 sequence (looked up): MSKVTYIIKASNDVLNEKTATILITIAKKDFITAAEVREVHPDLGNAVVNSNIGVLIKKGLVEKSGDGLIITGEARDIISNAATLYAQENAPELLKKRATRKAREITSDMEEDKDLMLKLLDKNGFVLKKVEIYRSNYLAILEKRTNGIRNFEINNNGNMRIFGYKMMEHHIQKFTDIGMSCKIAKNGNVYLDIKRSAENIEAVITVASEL

MotA S80R, full length = biological target: T8, MotA S80R, full length (bacteriophage T4, UniProt P22915 1-211, S80R); experiment: fluorescence polarisation
T8 sequence (looked up): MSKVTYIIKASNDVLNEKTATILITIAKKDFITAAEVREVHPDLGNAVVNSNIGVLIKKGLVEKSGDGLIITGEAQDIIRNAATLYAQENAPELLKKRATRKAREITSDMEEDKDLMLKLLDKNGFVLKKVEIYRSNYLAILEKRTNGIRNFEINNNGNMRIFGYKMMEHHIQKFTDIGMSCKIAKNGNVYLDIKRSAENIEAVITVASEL

MotA K28E, full length = biological target: T9, MotA K28E, full length (bacteriophage T4, UniProt P22915 1-211, K28E); experiment: fluorescence polarisation
T9 sequence (looked up): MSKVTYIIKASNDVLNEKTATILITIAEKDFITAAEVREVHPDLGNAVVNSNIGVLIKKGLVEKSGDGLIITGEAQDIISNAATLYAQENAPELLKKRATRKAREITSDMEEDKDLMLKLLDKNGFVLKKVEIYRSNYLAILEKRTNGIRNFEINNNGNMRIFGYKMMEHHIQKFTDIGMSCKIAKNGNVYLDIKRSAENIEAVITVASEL

MotA wild type = biological target: T10, MotA wild type (bacteriophage T4, UniProt P22915 1-211); experiment: EMSA
T10 sequence: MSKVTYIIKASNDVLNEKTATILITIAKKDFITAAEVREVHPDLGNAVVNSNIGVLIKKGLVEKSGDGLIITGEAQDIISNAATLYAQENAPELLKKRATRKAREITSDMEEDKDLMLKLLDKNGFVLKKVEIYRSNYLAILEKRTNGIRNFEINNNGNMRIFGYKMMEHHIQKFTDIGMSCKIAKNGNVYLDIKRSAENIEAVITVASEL

B1: AsiA/σ4 complex (preformed binary complex of AsiA and σ^70 region 4, residues 533 to 613) (complex, bacteriophage T4 | E. coli)
chain 1: MNKNIDTVREIITVASILIKFSREDIVENRANFIAFLNEIGVTHEGRKLNQNSFRKIVSELTQEDKKTLIDEFNEGFEGVYRYLEMYTNK
chain 2: DSATTESLRAATHDVLAGLTAREAKVLRMRFGIDMNTDYTLEEVGKQFDVTRERIRQIEAKALRKLRHPSRSEVLRSFLDD
binding result [1]: binds

B2: σ4 (σ^70 region 4, residues 533 to 613) (domain or fragment, E. coli, UniProt P00579 533-613, looked up)
chain: DSATTESLRAATHDVLAGLTAREAKVLRMRFGIDMNTDYTLEEVGKQFDVTRERIRQIEAKALRKLRHPSRSEVLRSFLDD
binding result (AsiA): binds | binding result [1]: binds

{FITC}-PSRSEVLRSFLDD (peptide, UniProt P00579 601-613, looked up) [fluorescein-tagged σ4-H5 peptide (σ^70 residues 601-613)]
Kd (MotA K3E, full length): > 300 µM | Kd (MotA D43K, full length): 12 ± 1 µM | Kd [2]: 15.9 ± 1.3 µM | Kd (MotA K59E, full length): 10 ± 1 µM | Kd (MotA D67K, full length): 24.3 ± 0.1 µM | Kd (MotA Q76R, full length): 39.1 ± 5 µM | Kd (MotA S80R, full length): 44.7 ± 5 µM | Kd (MotA K28E, full length): > 300 µM

B3: 21 bp MotA box DNA (dsDNA)
DNA 1: GAATTATTTGCTTTAGATTAC
DNA 2: GTAATCTAAAGCAAATAATTC
Kd (MotA wild type): ~0.6 µM
